The results in this text go back to the supplement of paper PMC9170038.

This series relates to MS2 coat protein. Kind of series: apparent KD of MS2 coat protein; higher = weaker reporter binding. Particulars: Eterna round: R107. On the procedure:
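RNA-MaP round R107: designed RNA switches with theophylline, tryptophan, arginine or FMN aptamers are transcribed on-chip within common flanks. They are titrated with SNAP-549-labelled MS2 coat protein in RNA-MaP buffer (100 mM Tris pH 7.5, 80 mM KCl, 4 mM MgCl2), without ligand or with the indicated ligand. Median apparent KD per design.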

Where [1] appears, read: input ligand: theophylline 20 uM.
Setting [2] is: input ligand: tryptophan 2.4 mM.
Setting [3] is: input ligand: theophylline 2 mM.

Consider “AAACUGGGUGUAAAAUAAAUAAUCACUGAUACCAGACUAUAGUAUGUCCCUUGGCAGCAGAAACAUGAGGAUCACCCAUGUAAUA [JR_Nu_ExcTheophyA_Sub024]”, for which the “apparent KD of MS2 coat protein” value is, setting by setting: (input ligand: arginine 13.2 mM) 22.3 nM; under setting [1], 23 nM; under setting [2], 25.2 nM.
On the same counts, the results for “AAACUGGGUGUAAAAUAAAUAAUCACUGAUACCAGACUAUGAGAUGUCCCUUGGCAGCAGAAACAUGAGGAUCACCCAUGUAAUA [JR_Nu_ExcTheophyA_Sub026]” are 19.6 nM, 24.5 nM and 25.2 nM.
Turning to “AAAGAUACCAGAGAUACCAGCCAAAAUUAAAAUAAAACCUCACAUGAGGAUCACCCAUGUGGCCCUUGGCAGCUCCCUUGGCAGC [#DoubbleAptamer 1]”, the “apparent KD of MS2 coat protein” value (input ligand: arginine 13.2 mM) worked out at 13.1 nM, the “apparent KD of MS2 coat protein” value under setting [1] stood at 15.5 nM and the “apparent KD of MS2 coat protein” value under setting [2] came out at 12.5 nM.
For “AAAGGAAGGUAAAAUAAAACUACAUGUGAAGGAGCGCGCGAAAGCGCAGGUAGGUCGCACAUGAGGAUCACCCAUGUCCUUCCAA [MAT - Exclusion Arginine A - Mod of Eli - D4]”, the “apparent KD of MS2 coat protein” value was found to be 112 nM (input ligand: arginine 13.2 mM); 104 nM (input ligand: none); 181 nM under setting [1]; 129 nM under setting [3]; 96.8 nM under setting [2].
Take “AAAGGUAGCAAUAAAUCUCCUACAUGUGAAGGAGCGCCCGAAAGGGCAGGUAGGUCGCACAUGAGGAUCACCCAUGUGAGCUACC [ArgEX 5 #SwitchBubble]”: the “apparent KD of MS2 coat protein” value was 18.9 nM (input ligand: arginine 13.2 mM); 15.2 nM (input ligand: none); 20.9 nM under setting [1]; 21.2 nM under setting [3]; 15.3 nM under setting [2].
As to “AAAGGUCGCAAUAAAUCUCCUACAUGUGAAGGAGCGCCCGAAAGGGCAGGUAGGUCGCACAUGAGGAUCACCCAUGUGAGCGACC [MAT - Exclusion Arginine A - Mod of Eli - D2]”, the “apparent KD of MS2 coat protein” value was determined as 10.3 nM (input ligand: arginine 13.2 mM); 12.4 nM (input ligand: none); 14.6 nM under setting [1]; 13 nM under setting [3]; 11.8 nM under setting [2].
On the same counts, the results for “AAAGGUCGGACGGCCGCCACUGGCUAGGUGGGUUCCGGGAUUACAUGAGGAUCACCCAUGUAUACCAGGACCGGGUUCGCCUCGU [Lageonor]” are 9.51 nM, 11.9 nM, 12.2 nM, 8.28 nM and 17.8 nM.
Consider “AAAUAAAACUGACAUACUGACCCAGUGGAAGGAGCGCACGAGGGUGCAGGUAGGUCGCCACAUGAGGAUCACCCAUGUCACGGAA [Esesinonla]”, for which the “apparent KD of MS2 coat protein” value runs as follows: (input ligand: arginine 13.2 mM) 56 nM; (input ligand: none) 91.9 nM; under setting [1], 135 nM; under setting [3], 131 nM; under setting [2], 86.7 nM.
With “AAAUAAAUACAUGAGGAUCACCCAUGUGAAGGAGCGCGCGUUAGCGCAGGUAGGUCGCACAUGAAAGGGAAGCGAAAGAAAUAAU [MAT - Exclusion Arginine A - Mod of Eli - D16]”, the “apparent KD of MS2 coat protein” value was found to be 24.9 nM (input ligand: arginine 13.2 mM); 19 nM (input ligand: none); 28.6 nM under setting [1]; 24.3 nM under setting [3]; 22.2 nM under setting [2].
“AAAUAAAUACAUGAGGAUCACCCAUGUGAAGGAGCGCGCGUUAGCGCAGGUAGGUCGCACAUGAACUCCAAAGUGCAAAAGCACA [MAT - Exclusion Arginine A - Mod of Eli - D8]”: the “apparent KD of MS2 coat protein” value by setting is: (input ligand: arginine 13.2 mM) 19.7 nM; (input ligand: none) 22.8 nM; under setting [1], 25.1 nM; under setting [3], 20.5 nM; under setting [2], 24.7 nM.
Take “AAAUAGGUAGGAGAUACCAGAUAGGUUAACAUGAGGAUCACCCAUGUGUAUGCACUUAGUGUCCCUUGGCAGCUCCUGGAUCUGG [#19 Same State - Theophylline B]”: the “apparent KD of MS2 coat protein” value was found to be 33.3 nM (input ligand: arginine 13.2 mM); 47.1 nM (input ligand: none); 77.9 nM under setting [1]; 63.2 nM under setting [3]; 60.5 nM under setting [2].
On the same counts, the results for “AAAUAUUACGGAAGGAGCGUCUCAUAUAUGAAACAUGAGGAUCACCCAUGUGAUAAUGAACGACAGGUAGGUCGCCGAUAAUUGA [JR_AAArginiB_Sub029]” are 16.1 nM, 16 nM, 22.7 nM, 16.8 nM and 15.1 nM.
On to “AACAACAAGGGAAGGAGCGCGAAUUAUAGACAUGAGGAUCACCCAUGUAACAUGGGAUUAACGCAGGUAGGUCGCCCACAAACAA [#08 Exclusion - Arginine B]”, for which the “apparent KD of MS2 coat protein” value reads like this: (input ligand: arginine 13.2 mM) 80.5 nM; (input ligand: none) 162 nM; under setting [1], 237 nM; under setting [3], 177 nM; under setting [2], 117 nM.
Consider “AACACAUGAGGAUCACCCAUGUUCUCGUGUCGAGGACCGGUACGGCCGCCACUCGGUUCUCGCGAGGAUGGUCAAAGACUAUCCA [Omei Trp A SS B v7]”, for which the “apparent KD of MS2 coat protein” value (input ligand: arginine 13.2 mM) is 40.3 nM, the “apparent KD of MS2 coat protein” value under setting [1] amounted to 57.4 nM and the “apparent KD of MS2 coat protein” value under setting [3] stood at 50.4 nM.
Turning to “AACACGGUGAUGGUAGCCGGACGCUAGGUACGAGGACCGGUACGGCCGCCACUCGAAGUCCUACGACAUGAGGAUCACCCAUGUA [Same State Trp A GF14]”, the “apparent KD of MS2 coat protein” value amounted to 46.2 nM (input ligand: arginine 13.2 mM); 64.3 nM (input ligand: none); 89.2 nM under setting [1]; 81.7 nM under setting [3]; 47.7 nM under setting [2].
Regarding “AACAUGAGGAUCACCCAUGUACAUUUCGAUCGAGGACCGGUACGGCCGCCACUCGAAAACAUGAGGAUCACCCAUGUUCAACAGG [Tryp A SS t4]”, the “apparent KD of MS2 coat protein” value is, setting by setting: (input ligand: arginine 13.2 mM) 65 nM; under setting [1], 336 nM; under setting [3], 390 nM.
As to “AACGAUUAAUCGGCCGCCACUCACAUGAGGAUCACCCAUGUUGUUCUUCCAGGUGGUUCUGUUCCGAGGACCGGGAUUCCGUCCU [theeternabot_exclusion_MS2_Trp_B_42]”, the “apparent KD of MS2 coat protein” value was determined as 41.8 nM (input ligand: arginine 13.2 mM), 70.6 nM under setting [1] and 70.7 nM under setting [3].
For “AACGUAUACAGAAGGAGCGUGAAUUAUAUUACUCAUUGUUAUACAUGAGGAUCACCCAUGUCACAGGUAGGUCGCUGUAUUCGUA [JR_ExcArginiB_Sub018]”, the “apparent KD of MS2 coat protein” value runs as follows: (input ligand: arginine 13.2 mM) 76.9 nM; (input ligand: none) 131 nM; under setting [1], 126 nM; under setting [3], 162 nM; under setting [2], 110 nM.
Consider “AAGGCUACGACCGAUACCAGUAGACGGCAUUCGUAGGAGAACAUGAGGAUCACCCAUGUCUACCCUUGGCAGCGGAAAAUACACU [theeternabot_exclusion_MS2_Theo_B_16]”, for which the “apparent KD of MS2 coat protein” value is, setting by setting: (input ligand: arginine 13.2 mM) 11.1 nM; under setting [1], 17.4 nM; under setting [2], 12.3 nM.
“AAGGGACAUGAGGAUCACCCAUGUACCGAAGGAGCGGCAGAGAUGCCAGGUAGGUCGCGGUACUUGCCGGGUCAUUCAUGCUAAA [Isxeon]”: the “apparent KD of MS2 coat protein” value by setting is: (input ligand: arginine 13.2 mM) 9.48 nM; (input ligand: none) 12 nM; under setting [1], 14.3 nM; under setting [3], 11.6 nM; under setting [2], 13.5 nM.
Regarding “AAGGGUGGGUCUCUAAUCCGUUUGACGGAUACCAGCGAGAGAUAUCGCCCUUGGCAGCCGACGACAUGAGGAUCACCCAUGUAAA [#05 Exclusion-TheophyllineA]”, the “apparent KD of MS2 coat protein” value (input ligand: arginine 13.2 mM) turned out to be 16.8 nM; the “apparent KD of MS2 coat protein” value (input ligand: none) was 18.7 nM; the “apparent KD of MS2 coat protein” value under setting [1] stood at 22.5 nM; the “apparent KD of MS2 coat protein” value under setting [3] stood at 34.8 nM; the “apparent KD of MS2 coat protein” value under setting [2] came out at 15.8 nM.
Turning to “AAGGUGAUCCCAGAUACCAGCUUAACAUGAGGAUCACCCAUGUAACGGACGAAAGUCCGGAGCCCUUGGCAGCUGGGUUGCCAAG [SSTheo B #14]”, the “apparent KD of MS2 coat protein” value was 102 nM (input ligand: arginine 13.2 mM); 266 nM (input ligand: none); 305 nM under setting [1]; 141 nM under setting [3]; 90.9 nM under setting [2].
For the sequence “AAUAACAUGAGGAUCACCCAUGUAAAAGAUACCAGAGUGAUGAUCCUCCCUUGGCAGCUUAAAACGCUAUUGGAAACAAUAGCGA [Mat - Same State Theophlline A - Mod of Eli - D5]”, the “apparent KD of MS2 coat protein” value is, setting by setting: (input ligand: arginine 13.2 mM) 48.8 nM; under setting [1], 179 nM; under setting [2], 74 nM.
On the same counts, the results for “AAUAACAUGAGGAUCACCCAUGUAAAAGAUACCAGAUGCAUGAUGAUCCCUUGGCAGCUUAAACGCGAUUGGAAACAAUCGCGAA [Mat - Same State Theophlline A - Mod of Eli - D11]” are 37.1 nM, 40 nM and 38.3 nM.
As for “AAUAACAUGAGGAUCACCCAUGUAACCGAAGGAGCGGCAAUAAAGCCAGGUAGGUCGCGGAAUAACAUGAGGAUCACCCAUGUAA [Exclusion Arginine A]”, the “apparent KD of MS2 coat protein” value turned out to be 55.5 nM (input ligand: arginine 13.2 mM); 138 nM (input ligand: none); 112 nM under setting [1]; 125 nM under setting [3]; 94.7 nM under setting [2].
Turning to “AAUAAUAAGGCGGCCGCCACUAAACAUGAGGAUCACCCAUGUCUCGAGGGCUUGCGUUUGGGAAGUAGGACCGGGCCAAUAAUAA [Exclusion - Tryptophan B (Freestyle 6)]”, the “apparent KD of MS2 coat protein” value was 12.6 nM (input ligand: arginine 13.2 mM); 17.9 nM (input ligand: none); 18.8 nM under setting [1]; 20.4 nM under setting [3]; 16.4 nM under setting [2].
For the sequence “AAUAAUAUCCUCAUGUGAGUCGUACCAUAACGAGGACCGGUACGGCCGCCACUCGAACAUGAGGAUCACCCAUGUAGGUAUGAUA [M'-T'-T-MS2-T'' - Design 7]”, the “apparent KD of MS2 coat protein” value is, setting by setting: (input ligand: arginine 13.2 mM) 50.6 nM; under setting [1], 120 nM; under setting [3], 345 nM.
